From the supplement of paper PMC9732359
± gives the uncertainty stated by the source.

Experiment: protein stability index of a GFP-peptide fusion (yeast GPS) (PSI 1-4); higher = more stable; sorted into four equal gates, so the index is relative within each strain
Method in brief: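 Plasmids isolated from each sorting gate were PCR-amplified and Illumina-sequenced, and barcodes assigned the reads to strains. The gates, four of equal size, were set by GFP/Cherry fluorescence ratio on mid-log cultures in leucine-free medium. These cultures were yeast carrying a pooled library of tiled 17-residue yeast protein peptides fused downstream of GFP on a plasmid that also expresses Cherry. The protein stability index is the sum of every gate's read frequency times its gate number.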

## DTLDSKSNGSSDDDNIG [ISW2]
doa10∆
  protein stability index: 3.26 ± 0.09
pdr5∆
  protein stability index: 3.23 ± 0.074
san1∆
  protein stability index: 3.11 ± 0.057
ubr1∆
  protein stability index: 3.03 ± 0.067

## NSPSKGNSERPSAVAGF [YIL149C/MLP2]
doa10∆
  protein stability index: 3.2 ± 0.087
pdr5∆
  protein stability index: 3.45 ± 0.1
san1∆
  protein stability index: 3.1 ± 0.089
ubr1∆
  protein stability index: 3.16 ± 0.11

## KTARGKAALERLKVFEG [RPL16A]
doa10∆
  protein stability index: 2.28 ± 0.15
pdr5∆
  protein stability index: 2.37 ± 0.089
san1∆
  protein stability index: 2.95 ± 0.1
ubr1∆
  protein stability index: 2.1 ± 0.12

## HKDIPEEDFYTVVGNAS [DSN1]
doa10∆
  protein stability index: 2.94 ± 0.091
pdr5∆
  protein stability index: 2.91 ± 0.18
san1∆
  protein stability index: 2.73 ± 0.1
ubr1∆
  protein stability index: 3.19 ± 0.062

## VEEAHDFNMKLAINAKT [RPB2]
doa10∆
  protein stability index: 3.09 ± 0.072
pdr5∆
  protein stability index: 3.03 ± 0.085
san1∆
  protein stability index: 3.08 ± 0.064
ubr1∆
  protein stability index: 3.08 ± 0.05

## MASTAVMMDVDSSGVND [RPN3]
doa10∆
  protein stability index: 3.17 ± 0.19
pdr5∆
  protein stability index: 3.51 ± 0.2
ubr1∆
  protein stability index: 3.26 ± 0.091

## KQLQQPKSSPLKKNNYN [SIR4]
doa10∆
  protein stability index: 3.03 ± 0.089
pdr5∆
  protein stability index: 2.98 ± 0.068
san1∆
  protein stability index: 3.1 ± 0.039
ubr1∆
  protein stability index: 3.07 ± 0.039

## NAVISHANAAAVYFADT [SIN4]
doa10∆
  protein stability index: 2.03 ± 0.049
pdr5∆
  protein stability index: 2.29 ± 0.047
san1∆
  protein stability index: 2.06 ± 0.051
ubr1∆
  protein stability index: 2.3 ± 0.034

## KPFGSAKSDETKQASSF [YLR335W/NUP2]
pdr5∆
  protein stability index: 2.09 ± 0.12
san1∆
  protein stability index: 1.92 ± 0.15
ubr1∆
  protein stability index: 1.06 ± 0.13

## SSNCHVRQKIKTLKRMI [POP1]
doa10∆
  protein stability index: 1.41 ± 0.04
pdr5∆
  protein stability index: 1.75 ± 0.053
san1∆
  protein stability index: 1.42 ± 0.091
ubr1∆
  protein stability index: 2.01 ± 0.045

## DEEESNDEKQKAQDVDV [RPN13]
doa10∆
  protein stability index: 3.33 ± 0.12
pdr5∆
  protein stability index: 3.42 ± 0.077
san1∆
  protein stability index: 3.34 ± 0.044
ubr1∆
  protein stability index: 3.32 ± 0.049

## DEKDYLTNQQPKNLSTP [CSE2]
doa10∆
  protein stability index: 3.04 ± 0.083
pdr5∆
  protein stability index: 2.87 ± 0.081
san1∆
  protein stability index: 3.21 ± 0.059
ubr1∆
  protein stability index: 3.27 ± 0.069

## IKENFFERIMILDPQVT [YJL039C/NUP192]
doa10∆
  protein stability index: 1.3 ± 0.062
pdr5∆
  protein stability index: 1.33 ± 0.054
san1∆
  protein stability index: 1.29 ± 0.12
ubr1∆
  protein stability index: 1.14 ± 0.05

## IRGAVGNSEAIPGLSAG [RTT102]
doa10∆
  protein stability index: 3.23 ± 0.057
pdr5∆
  protein stability index: 3.36 ± 0.068
san1∆
  protein stability index: 3.26 ± 0.088
ubr1∆
  protein stability index: 3.43 ± 0.053

## RSYDLTRHQNTIHAKRK [RPN4]
doa10∆
  protein stability index: 2.48 ± 0.061
pdr5∆
  protein stability index: 2.48 ± 0.065
san1∆
  protein stability index: 2.52 ± 0.071
ubr1∆
  protein stability index: 2.53 ± 0.07

## DLQYLGEFSGKNFSPTK [RRP6]
doa10∆
  protein stability index: 3.46 ± 0.063
pdr5∆
  protein stability index: 3.25 ± 0.083
san1∆
  protein stability index: 3.19 ± 0.04
ubr1∆
  protein stability index: 3.24 ± 0.038

## PQFNSPYDSNNSNTNLN [SWI1]
doa10∆
  protein stability index: 2.97 ± 0.054
pdr5∆
  protein stability index: 3.03 ± 0.047
san1∆
  protein stability index: 2.76 ± 0.052
ubr1∆
  protein stability index: 2.9 ± 0.043

## ALTVQEVLNRVASRHPS [YDL116W/NUP84]
doa10∆
  protein stability index: 3.1 ± 0.086
pdr5∆
  protein stability index: 3.15 ± 0.073
san1∆
  protein stability index: 3.12 ± 0.043
ubr1∆
  protein stability index: 3.3 ± 0.047

## HYLVLLVAKFLYPIFLL [YJR042W/NUP85]
doa10∆
  protein stability index: 1.4 ± 0.035
pdr5∆
  protein stability index: 1.22 ± 0.032
san1∆
  protein stability index: 1.11 ± 0.071
ubr1∆
  protein stability index: 1.13 ± 0.026

## DDQLKQRRQNIRDLEKL [RPT4]
doa10∆
  protein stability index: 2.81 ± 0.23
pdr5∆
  protein stability index: 3.11 ± 0.29
san1∆
  protein stability index: 3.12 ± 0.13
ubr1∆
  protein stability index: 3.15 ± 0.16

## TNVSKQNDFLFSVGESL [ECM29]
doa10∆
  protein stability index: 2.56 ± 0.055
pdr5∆
  protein stability index: 2.92 ± 0.071
san1∆
  protein stability index: 2.94 ± 0.1
ubr1∆
  protein stability index: 2.46 ± 0.053

## PTNCPLRQFKTCPVEVI [BRR2]
doa10∆
  protein stability index: 3 ± 0.093
pdr5∆
  protein stability index: 3.17 ± 0.09
san1∆
  protein stability index: 3.33 ± 0.063
ubr1∆
  protein stability index: 2.9 ± 0.066

## QMTWRQWLNNALKRSYG [POP8]
doa10∆
  protein stability index: 2.9 ± 0.085
pdr5∆
  protein stability index: 3.08 ± 0.14
san1∆
  protein stability index: 3.56 ± 0.079
ubr1∆
  protein stability index: 3.2 ± 0.079

## PEPSHIDQVMMSVSDND [RET1]
doa10∆
  protein stability index: 2.43 ± 0.047
pdr5∆
  protein stability index: 2.06 ± 0.045
san1∆
  protein stability index: 2.43 ± 0.05
ubr1∆
  protein stability index: 2.48 ± 0.042

## YFKLSITSFDQDVDDAH [POP8]
doa10∆
  protein stability index: 1.78 ± 0.05
pdr5∆
  protein stability index: 1.95 ± 0.075
san1∆
  protein stability index: 1.78 ± 0.095
ubr1∆
  protein stability index: 2.25 ± 0.055

## NTLIPESSLTISLYFND [ECM29]
doa10∆
  protein stability index: 1.92 ± 0.046
pdr5∆
  protein stability index: 2.19 ± 0.052
san1∆
  protein stability index: 1.99 ± 0.061
ubr1∆
  protein stability index: 2.42 ± 0.043

## KLLKQPKFDVGALMALH [RPS1A]
doa10∆
  protein stability index: 1.9 ± 0.056
pdr5∆
  protein stability index: 2.16 ± 0.083
san1∆
  protein stability index: 1.9 ± 0.084
ubr1∆
  protein stability index: 1.9 ± 0.069

## LAPTQLSAEYLVILKPD [SIN4]
doa10∆
  protein stability index: 2.31 ± 0.11
pdr5∆
  protein stability index: 2.74 ± 0.13
san1∆
  protein stability index: 2.38 ± 0.12
ubr1∆
  protein stability index: 2.38 ± 0.074

## HTKFEVAIGLNGKIWVK [RRP40]
doa10∆
  protein stability index: 2.18 ± 0.084
pdr5∆
  protein stability index: 2.48 ± 0.065
san1∆
  protein stability index: 2.39 ± 0.072
ubr1∆
  protein stability index: 2.56 ± 0.055

## LMSCISVGTDPMPIITF [RPB2]
doa10∆
  protein stability index: 2.26 ± 0.086
pdr5∆
  protein stability index: 1.71 ± 0.056
san1∆
  protein stability index: 2.28 ± 0.05
ubr1∆
  protein stability index: 2.18 ± 0.054

## DLSLNIHPIPSVTVSQG [YMR129W/POM152]
doa10∆
  protein stability index: 1.98 ± 0.055
pdr5∆
  protein stability index: 2.43 ± 0.057
san1∆
  protein stability index: 1.98 ± 0.074
ubr1∆
  protein stability index: 2.17 ± 0.039

## SRILKAQSRNVEIEKRI [YGR119C/NUP57]
doa10∆
  protein stability index: 3.39 ± 0.07
pdr5∆
  protein stability index: 3.15 ± 0.066
san1∆
  protein stability index: 2.98 ± 0.067
ubr1∆
  protein stability index: 2.67 ± 0.053

## QSTNLNRSAKNSKNDSA [YCS4]
doa10∆
  protein stability index: 2.53 ± 0.05
pdr5∆
  protein stability index: 2.63 ± 0.05
san1∆
  protein stability index: 2.67 ± 0.064
ubr1∆
  protein stability index: 2.79 ± 0.046

## LYDLRASYAKIEIKISD [SNU114]
doa10∆
  protein stability index: 2.34 ± 0.11
pdr5∆
  protein stability index: 2.72 ± 0.084
san1∆
  protein stability index: 2.22 ± 0.12
ubr1∆
  protein stability index: 2.13 ± 0.17

## KADDDSVTIISAGNDKM [ASC1]
doa10∆
  protein stability index: 3.24 ± 0.091
pdr5∆
  protein stability index: 2.92 ± 0.11
san1∆
  protein stability index: 3.16 ± 0.04
ubr1∆
  protein stability index: 3.04 ± 0.058

## AKCNSLLQLKYFSNKTS [POP5]
doa10∆
  protein stability index: 1.84 ± 0.076
pdr5∆
  protein stability index: 2.09 ± 0.055
san1∆
  protein stability index: 1.8 ± 0.1
ubr1∆
  protein stability index: 2.2 ± 0.08

## KEKKELQMRLKESEISH [YIL149C/MLP2]
doa10∆
  protein stability index: 2.6 ± 0.22
pdr5∆
  protein stability index: 2.94 ± 0.17
san1∆
  protein stability index: 3.04 ± 0.17
ubr1∆
  protein stability index: 3.04 ± 0.15

## EAPAGNIDTITDAMTES [MCD1]
doa10∆
  protein stability index: 2.8 ± 0.079
pdr5∆
  protein stability index: 3.04 ± 0.052
san1∆
  protein stability index: 2.96 ± 0.072
ubr1∆
  protein stability index: 3.16 ± 0.057

## PANAEPQAVTITSIMDD [ITC1]
doa10∆
  protein stability index: 2.39 ± 0.11
pdr5∆
  protein stability index: 2.83 ± 0.09
san1∆
  protein stability index: 2.49 ± 0.069
ubr1∆
  protein stability index: 3.02 ± 0.11

## LQRDLIQTKEQVSINSN [YIL149C/MLP2]
doa10∆
  protein stability index: 2.78 ± 0.072
pdr5∆
  protein stability index: 3.12 ± 0.089
san1∆
  protein stability index: 3.11 ± 0.065
ubr1∆
  protein stability index: 3.27 ± 0.059

## LNELYQTQQDLPKVRYN [NSL1]
doa10∆
  protein stability index: 3.1 ± 0.042
pdr5∆
  protein stability index: 3.12 ± 0.052
san1∆
  protein stability index: 2.96 ± 0.039
ubr1∆
  protein stability index: 3.03 ± 0.038

## DLSADKPTSPFIDSICK [SRB8]
doa10∆
  protein stability index: 2.12 ± 0.034
pdr5∆
  protein stability index: 1.88 ± 0.039
san1∆
  protein stability index: 1.76 ± 0.048
ubr1∆
  protein stability index: 1.93 ± 0.032

## LLDDKKLMDEDSVATVI [YJR042W/NUP85]
doa10∆
  protein stability index: 3.06 ± 0.15
pdr5∆
  protein stability index: 2.91 ± 0.21
san1∆
  protein stability index: 2.87 ± 0.14

## FDMTNHYNDSQQLRTWK [SRB8]
doa10∆
  protein stability index: 2.99 ± 0.079
pdr5∆
  protein stability index: 3.01 ± 0.084
san1∆
  protein stability index: 3 ± 0.078
ubr1∆
  protein stability index: 2.9 ± 0.061

## QAPSELELQVAKTFIDL [RPS7B]
doa10∆
  protein stability index: 3.06 ± 0.054
pdr5∆
  protein stability index: 3.13 ± 0.04
san1∆
  protein stability index: 2.89 ± 0.072
ubr1∆
  protein stability index: 2.99 ± 0.046

## VTRGISVLKDSDDKTRQ [PRE1]
doa10∆
  protein stability index: 3.16 ± 0.078
pdr5∆
  protein stability index: 3.28 ± 0.066
san1∆
  protein stability index: 3.18 ± 0.056
ubr1∆
  protein stability index: 3.17 ± 0.059

## TLAITTVTNSKFRSSIL [RPN2]
doa10∆
  protein stability index: 2.19 ± 0.046
pdr5∆
  protein stability index: 2.3 ± 0.047
san1∆
  protein stability index: 2.17 ± 0.054
ubr1∆
  protein stability index: 2.52 ± 0.045

## EWDLYPQGFSSVERGRK [REC8]
doa10∆
  protein stability index: 3.41 ± 0.13
pdr5∆
  protein stability index: 3.54 ± 0.14
san1∆
  protein stability index: 3.44 ± 0.086
ubr1∆
  protein stability index: 3.48 ± 0.12

## VLVSMGSSNKAVVQTVK [YJL039C/NUP192]
doa10∆
  protein stability index: 1.33 ± 0.26
pdr5∆
  protein stability index: 1.5 ± 0.15
ubr1∆
  protein stability index: 1.34 ± 0.19

## LPLQPIEIDYTVRVDKA [SNF12]
doa10∆
  protein stability index: 2.39 ± 0.061
pdr5∆
  protein stability index: 2.19 ± 0.055
san1∆
  protein stability index: 2.08 ± 0.064
ubr1∆
  protein stability index: 2.27 ± 0.045
